{"source": "the PETadex activity labels (doi:10.1002/cbic.202200516)", "proteins": {"B1": {"name": "unnamed (protein)", "chain": "MNFPRASRLMQAAVLGGLMAVSAAATAQTNPYARGPNPTAASLEASAGPFTVRSFTVSRPSGYGAGTVYYPTNAGGTVGAIAIVPGYTARQSSIKWWGPRLASHGFVVITIDTNSTLDQPSSRSSQQMAALRQVASLNGTSSSPIYGKVDTARMGVMGWSMGGGGSLISAANNPSLKAAAPQAPWDSSTNFSSVTVPTLIFACENDSIAPVNSSALPIYDSMSRNAKQFLEINGGSHSCANSGNSNQALIGKKGVAWMKRFMDNDTRYSTFACENPNSTRVSDFRTANCS"}, "B2": {"name": "unnamed (protein)", "chain": "MAVMTPRRERSSLLSRALQVTAAAATALVTAVSLAAPAHAANPYERGPNPTDALLEASSGPFSVSEENVSRLSASGFGGGTIYYPRENNTYGAVAISPGYTGTEASIAWLGERIASHGFVVITIDTITTLDQPDSRAEQLNAALNHMINRASSTVRSRIDSSRLAVMGHSMGGGGTLRLASQRPDLKAAIPLTPWHLNKNWSSVTVPTLIIGADLDTIAPVATHAKPFYNSLPSSISKAYLELDGATHFAPNIPNKIIGKYSVAWLKRFVDNDTRYTQFLCPGPRDGLFGEVEEYRSTCPF"}, "B3": {"name": "unnamed (protein)", "chain": "MDGVLWRVRTAALMAALLALAAWALVWASPSVEAQSNPYQRGPNPTRSALTADGPFSVATYTVSRLSVSGFGGGVIYYPTGTSLTFGGIAMSPGYTADASSLAWLGRRLASHGFVVLVINTNSRFDYPDSRASQLSAALNYLRTSSPSAVRARLDANRLAVAGHSMGGGGTLRIAEQNPSLKAAVPLTPWHTDKTFNTSVPVLIVGAEADTVAPVSQHAIPFYQNLPSTTPKVYVELDNASHFAPNSNNAAISVYTISWMKLWVDNDTRYRQFLCNVNDPALSDFRTNNRHCQ"}}, "data": [{"substrate": "BHET", "settings": "50 °C; part of the chain shown", "units": {"Km": "µM", "kcat": "s⁻¹", "kcat/Km": "M⁻¹ s⁻¹"}, "values": [{"protein": "B1", "Km": 1400, "kcat": 4.8, "kcat/Km": 3430}]}, {"substrate": "PET-02mer", "settings": "50 °C; part of the chain shown", "units": {"Km": "µM", "kcat": "s⁻¹", "kcat/Km": "M⁻¹ s⁻¹"}, "values": [{"protein": "B1", "Km": 58, "kcat": 23, "kcat/Km": 397000}]}, {"substrate": "BHET", "settings": "50 °C", "units": {"Km": "µM", "kcat": "s⁻¹", "kcat/Km": "M⁻¹ s⁻¹"}, "values": [{"protein": "B2", "Km": 230, "kcat": 1.1, "kcat/Km": 4780}, {"protein": "B3", "Km": 960, "kcat": 6.2, "kcat/Km": 6460}]}, {"substrate": "MHET", "settings": "50 °C", "units": {"Km": "µM", "kcat": "s⁻¹", "kcat/Km": "M⁻¹ s⁻¹"}, "values": [{"protein": "B2", "Km": 3800, "kcat": 0.043, "kcat/Km": 11.3}, {"protein": "B3", "Km": 1200, "kcat": 0.048, "kcat/Km": 40}]}, {"substrate": "PET-02mer", "settings": "50 °C", "units": {"Km": "µM", "kcat": "s⁻¹", "kcat/Km": "M⁻¹ s⁻¹"}, "values": [{"protein": "B2", "Km": 170, "kcat": 62, "kcat/Km": 365000}, {"protein": "B3", "Km": 790, "kcat": 300, "kcat/Km": 380000}]}]}
